Legend:
uPA = target: T1, uPA (Homo sapiens, UniProt P00749+P05121); experiment: In situ proximity ligation assay (PLA) on HUVECs; assay type: cell-based
T1 construct: endogenous in cells; host or cells: HUVEC
Protocol: HUVECs were grown on gelatin-coated glass coverslips. After incubation for 2 h with 14K GH (50 nM) or 16K PRL (50 nM), the cells were washed with PBS at room temperature and fixed with 4% paraformaldehyde for 15 min, blocked, permeabilized and incubated overnight with mouse anti uPA (American Diagnostica Inc. Greenwich, Conn.) diluted 1/100 and rabbit anti prolactin (Dako) diluted 1/100, or rabbit anti human GH (home made) diluted 1/100. PLA was performed according to the manufacturer's instructions using the Duolink Detection Kit 563 (Olink Bioscience) with anti-mouse MINUS and anti-rabbit PLUS PLA probes. DAPI nucleus stain was added to the mounting media and the slides were analyzed by fluorescence microscopy.

PAI-1 = target: T2, PAI-1 (Mus musculus, UniProt P22777); experiment: Murine thromboembolism model (tPA/thromboplastin); assay type: in vivo; conditions: recombinant 16K PRL 1 mg/kg i.v. 5 min before t-PA/thromboplastin; survival at 15 min; control group 73%; p=0.003
T2 construct: from tissue; host or cells: BalbC Njrj mice, in vivo (blood)
T2 sequence (P22777 23-402): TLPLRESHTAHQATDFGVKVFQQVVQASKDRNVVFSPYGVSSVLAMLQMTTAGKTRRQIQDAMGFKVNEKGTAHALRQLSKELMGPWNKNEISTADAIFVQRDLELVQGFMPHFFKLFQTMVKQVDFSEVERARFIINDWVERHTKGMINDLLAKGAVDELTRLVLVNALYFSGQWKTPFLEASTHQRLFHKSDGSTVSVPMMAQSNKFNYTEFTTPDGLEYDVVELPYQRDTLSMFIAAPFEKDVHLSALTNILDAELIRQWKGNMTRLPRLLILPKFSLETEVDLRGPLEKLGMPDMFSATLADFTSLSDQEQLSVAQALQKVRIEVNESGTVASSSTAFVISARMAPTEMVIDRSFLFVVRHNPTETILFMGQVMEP
Protocol: BalbC Njrj Mice were used and anesthetised with ketamine/xylazine throughout the whole experiment. Recombinant 16K PRL and adenovirus vectors 16K-Ad and Null-Ad were produced as described above. The animal experiment protocol used was approved by the Institutional Ethics Committee of the University of Liege.
Recombinant 16K PRL (1 mg/kg) or POPRL 7-12 (10 mg/kg) were administrated via the vein to BalbC Njrj mice of approximately 15-18 g. Five minutes after the injection, a suboptimal concentration of t-PA (0.1 mg/kg) was injected immediately followed by i.v. injection of thromboplastin (3.3 μg/kg) to evoke thromboembolism. Mice were evaluated after 15 min for survival. For experiment with adenovirus vectors, mice were injected into the tail vein with 10^9 pfu of 16K hPRL adenovirus (16K-Ad) and their corresponding control (Null-Ad) 5 days before the injection a suboptimal concentration of t-PA (0.1 mg/kg) injected immediately followed by i.v. injection of thromboplastin (3.3 μg/kg).
The fisher test was used to determine the significance of the differences in the mortality assays.

B16F10 tumor = experiment: B16F10 subcutaneous tumor model in wild type and PAI-1 deficient mice; assay type: in vivo, mouse
Protocol: Homozygous PAI-1 deficient mice (PAI-1^−/−) and the corresponding WT mice (PAI^+/+) from either sex with a mixed genetic background 87% C57BL/6 and 13% 129 strain were used throughout this study. The animal experiment protocol used was approved by the Institutional Ethics Committee of the University of Liege.
Subconfluent B16-F10 cells were trypsinized, washed, and resuspended in PBS. Cell suspension (10^5 cells in 50 μl PBS) was injected subcutaneously into the right flank of mice experiments were performed on seven mice in each group. 18 to 20 days after tumor cells injection, the mice were killed and their tumors harvested. Tumor growth was assessed by measuring the length and width of each tumor every 1 to 2 days and calculating tumor volume by means of the formula: length×width^2×0.5.
16K-Ad is a defective recombinant E1-E3-deleted adenovirus vector encoding a secreted polypeptide consisting of the first 139 amino acids of PRL. This adenovirus vector was constructed as previously described with the help of the Adeno-X expression system (BD Biosciences, Erembodegem, Belgium). Null-Ad is a control adenovirus carrying an empty expression cassette. A recombinant adenovirus vector bearing WT human PAI-1 (AdCMVPAI-1) and control adenovirus (AddRR5) were generated as previously described.
The 16K hPRL adenovirus and their corresponding control were injected into mouse tail vein 2 days before the subcutaneous injection of tumor cells. A second injection was done 8 days after the first one. The wt PAI-1 adenovirus and their control were injected one day after the 16K hPRL adenovirus injections. 10^9 pfu of adenoviruses were used for each tail vein injection.
HUVECs were grown to 70% confluence on gelatin-coated 35-mm dishes. After incubation for 3 h with 14K GH (160 ng/ml) or 16K PRL (160 ng/ml), the cells were washed with PBS at room temperature and incubated for 1 h at room temperature under non-permeabilization conditions with mouse anti uPA (American Diagnostica INC) diluted 1/100, rabbit anti prolactin (Dako) diluted 1/100, or rabbit anti human GH (home made) diluted 1/100. Endothelial cells were washed in PBS and incubated with FITC horse anti mouse (Vector Laboratory) and Texas red goat anti rabbit antibodies (Jackson Laboratory). For PAI-1 staining, the cells were incubated simultaneously with Histag PAI-1 at 800 uM and 16K PRL or 14K GH. […] Cryostat tumor sections (5 μm thick) were fixed in acetone at −20° C. and in 100% methanol at 4° C. and then incubated with the primary antibodies, rat monoclonal anti PECAM-1, and rabbit polyclonal anti-prolactin (DAKO) for 1 hour at room temperature. The slides were washed and incubated with a Cy3 goat anti-rat and an FITC goat anti-rabbit antibody. After 3 washes in PBS for 10 min, the slides were covered with coverslips in mounting medium (Victor Laboratories Inc.) and analyzed by fluorescence microscopy.

B1: 16K hPRL: 16K N-terminal human prolactin fragment, recombinant, produced and purified from E. coli (protein)
chain: LPICPGGAARCQVTLRDLFDRAVVLSHYIHNLSSEMFSEFDKRYTHGRGFITKAINSCHTSSLATPEDKEQAQQMNQKDFLSLIVSILRSWNEPLYHLVTEVRGMQEAPEAILSKAVEIEEQTKRLLEGMELIVSQVHP
**Q.** With B1 as the molecule, how does the “distance between uPA and 16K PRL” value (uPA) read?
**A.** Its value is “less than 40 nm”.

**Q.** And the mortality (PAI-1)?
**A.** Its mortality is 32%.

**Q.** And the “16K PRL localization (immunostaining)” value (B16F10 tumor; PAI-1-deficient mice)?
**A.** The value was “only in the bloodstream”.

**Q.** And the “plasma level of 16K PRL at the end of the experiment” value (B16F10 tumor; PAI-1 deficient mice)?
**A.** The value was “remained detectable”.

**Q.** And the anti-tumoral effect (B16F10 tumor; PAI-1 deficient mice with systemic expression of human PAI-1 (adenoviral vector))?
**A.** The anti-tumoral effect was “restored”.

**Q.** And the tumor growth (B16F10 tumor; PAI-1 deficient mice, 16K PRL expressed via 16K-Ad)?
**A.** Its tumor growth is “did not show a tumor growth reduction”.

**Q.** And the tumor blood vessels (B16F10 tumor; PAI-1−/− mice)?
**A.** Its tumor blood vessels is “appeared normal”.

**Q.** And the “plasma level of 16K PRL at the end of the experiment” value (B16F10 tumor; mice where human PAI-1 expression was restored)?
**A.** The value was “considerably dropped off”.

**Q.** What about the “16K PRL localization (immunostaining)” value (B16F10 tumor; wild-type mice and PAI-1−/− mice injected with PAI-1-Ad) of the same molecule?
**A.** Its value is “observed in tumor tissues”.

**Q.** And the tumor blood vessels (B16F10 tumor; wild-type mice, versus untreated controls)?
**A.** Its tumor blood vessels is “smaller, collapsed blood vessels”.
